B1: rhRKIP C168A mutant, histidine-tagged (natural protein, human, UniProt P30086 1-187, looked up)
chain: MPVDLSKWSGPLSLQEVDEQPQHPLHVTYAGAAVDELGKVLTPTQVKNRPTSISWDGLDSGKLYTLVLTDPDAPSRKDPKYREWHHFLVVNMKGNDISSGTVLSDYVGSGPPKGTGLHRYVWLVYEQDRPLKCDEPILSNRSGDHRGKFKVASFRKKYELRAPVAGTAYQAEWDDYVPKLYEQLSGK
notes: human RKIP (PEBP1), cDNA GenBank NM_002567 in pET28B+, site-directed mutant; Same construct as m1 with the point mutation; source: E. coli BL21(DE3), purified (Ni-NTA)
B2: rhRKIP C133S mutant, histidine-tagged (natural protein, human, UniProt P30086 1-187, looked up)
chain: MPVDLSKWSGPLSLQEVDEQPQHPLHVTYAGAAVDELGKVLTPTQVKNRPTSISWDGLDSGKLYTLVLTDPDAPSRKDPKYREWHHFLVVNMKGNDISSGTVLSDYVGSGPPKGTGLHRYVWLVYEQDRPLKSDEPILSNRSGDHRGKFKVASFRKKYELRAPVAGTCYQAEWDDYVPKLYEQLSGK
notes: as for B1
B3: rhRKIP Ser153 to glutamate mutant, histidine-tagged (natural protein, human, UniProt P30086 1-187, looked up)
chain: MPVDLSKWSGPLSLQEVDEQPQHPLHVTYAGAAVDELGKVLTPTQVKNRPTSISWDGLDSGKLYTLVLTDPDAPSRKDPKYREWHHFLVVNMKGNDISSGTVLSDYVGSGPPKGTGLHRYVWLVYEQDRPLKCDEPILSNRSGDHRGKFKVAEFRKKYELRAPVAGTCYQAEWDDYVPKLYEQLSGK
notes: human RKIP (PEBP1), cDNA GenBank NM_002567 in pET28B+, site-directed mutant; Same construct as m1 with the point mutation; also called S153E; source: E. coli BL21(DE3), purified (Ni-NTA)
B4: rhRKIP C168S mutant, histidine-tagged (natural protein, human, UniProt P30086 1-187, looked up)
chain: MPVDLSKWSGPLSLQEVDEQPQHPLHVTYAGAAVDELGKVLTPTQVKNRPTSISWDGLDSGKLYTLVLTDPDAPSRKDPKYREWHHFLVVNMKGNDISSGTVLSDYVGSGPPKGTGLHRYVWLVYEQDRPLKCDEPILSNRSGDHRGKFKVASFRKKYELRAPVAGTSYQAEWDDYVPKLYEQLSGK
notes: as for B1
B5: rhRKIP Ser153 to aspartate mutant, histidine-tagged (natural protein, human, UniProt P30086 1-187, looked up)
chain: MPVDLSKWSGPLSLQEVDEQPQHPLHVTYAGAAVDELGKVLTPTQVKNRPTSISWDGLDSGKLYTLVLTDPDAPSRKDPKYREWHHFLVVNMKGNDISSGTVLSDYVGSGPPKGTGLHRYVWLVYEQDRPLKCDEPILSNRSGDHRGKFKVADFRKKYELRAPVAGTCYQAEWDDYVPKLYEQLSGK
notes: human RKIP (PEBP1), cDNA GenBank NM_002567 in pET28B+, site-directed mutant; Same construct as m1 with the point mutation; also called S153D; source: E. coli BL21(DE3), purified (Ni-NTA)
B6: rhRKIP Ser153 to alanine mutant, histidine-tagged (natural protein, human, UniProt P30086 1-187, looked up)
chain: MPVDLSKWSGPLSLQEVDEQPQHPLHVTYAGAAVDELGKVLTPTQVKNRPTSISWDGLDSGKLYTLVLTDPDAPSRKDPKYREWHHFLVVNMKGNDISSGTVLSDYVGSGPPKGTGLHRYVWLVYEQDRPLKCDEPILSNRSGDHRGKFKVAAFRKKYELRAPVAGTCYQAEWDDYVPKLYEQLSGK
notes: human RKIP (PEBP1), cDNA GenBank NM_002567 in pET28B+, site-directed mutant; Same construct as m1 with the point mutation; also called S153A; source: E. coli BL21(DE3), purified (Ni-NTA)

The values that follow come from paper PMC11767649, “Two Cysteines in Raf Kinase Inhibitor Protein Make Differential Contributions to Structural Dynamics In Vitro” (Molecules, 2025).

The first data set deals with the molecule itself. Nature of the data set: LC Q-TOF mass spectrometry; purified rhRKIP WT and mutant proteins in buffer at pH 7.4; peaks around 22 kDa (monomer) and 44 kDa (dimer).
By stoichiometry N is commonly meant the number of molecules, sites or subunits per partner or assembly. Take B1: the “stoichiometry N” value turned out to be 2.

A further data set deals with the molecule itself. In words: non-reducing SDS-PAGE; purified rhRKIP in sample loading buffer without β-mercaptoethanol or boiling; Coomassie Brilliant Blue staining or anti-His immunoblot.
With B2, the “stoichiometry N” value came to 2.

For the protein B3, the “stoichiometry N” value turned out to be 2. With B4, the “stoichiometry N” value came out at 2. Consider B5, for which the “stoichiometry N” value came out at 2. Regarding B6, the “stoichiometry N” value was 2.
